According to patent US20090203530A1, “Polymer evolution via templated synthesis” (priority 2005, published 2009):

Experiments:
papain [1] = target: T1, papain (Carica papaya, UniProt P00784); assay: Fluorescence polarization-based papain binding assay; conditions: BFL-labelled controls; varying concentrations of papain
T1 construct: purchased Sigma-Aldrich
T1 sequence (P00784 134-345): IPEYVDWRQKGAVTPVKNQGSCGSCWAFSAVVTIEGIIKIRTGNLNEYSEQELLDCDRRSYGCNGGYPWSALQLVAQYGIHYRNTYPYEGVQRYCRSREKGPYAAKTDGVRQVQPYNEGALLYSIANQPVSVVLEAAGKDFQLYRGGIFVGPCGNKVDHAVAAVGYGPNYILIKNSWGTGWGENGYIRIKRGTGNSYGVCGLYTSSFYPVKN
Description: Purified PNA 18-mers prepared as described above were reacted with BODIPY-fluorescein succinamidyl ester (BFL-SE, Molecular Probes). For each labelling reaction, 25 μL of a 250-400 μM stock solution of PNA in H2O was mixed with 25 μL 0.2 M sodium bicarbonate (pH 8.0) plus 2.5 μL of a 20 mg/mL solution of BFL-SE in DMSO. After four hours at 25° C., 50 μL DMSO was added, and the labelling reaction was incubated for an additional 4 hours. The labelled product was purified by reverse-phase HPLC as described above. The addition of the BFL fluorophore on the N-terminal primary amine typically delayed the elution time of the PNA by ˜5 min, and the absorption of the eluted peak was monitored both at 260 nm and at 470 nm. Masses of labelled peptides were confirmed by MALDI mass spectrometry, as follows:
Fluorescence polarization-based papain affinity assays were carried out as follows. BFL-labelled PNA was used at concentrations between 5 nM and 10 nM. […] After the binding reactions were equilibrated (4 hours at 25° C.), they were loaded onto a Nunc opaque black 384-well plate, and fluorescence polarization was measured using the Analyst AD system (Molecular Devices) with a fluorescein filter. Fluorescence polarization data in FIGS. 5B and 6C is shown as the change in fluorescence polarization (calculated relative to the output in the absence of protein) as a function of papain concentration. […]

papain [2] = target: T1, papain; assay: Enrichment assay by papain affinity selection of translated template mixtures; type: binding
Description: The methods used for in vitro papain affinity selection have been reported previously (Giesen (1998) NUCLEIC ACIDS RES. 26, 5004-5006). Papain-conjugated sepharose beads (50 μL) were prepared according to this protocol and combined with […] of translated and displaced PNA library. After 4 hours at 4° C. with slow mixing, the beads were filtered, washed three times with high salt buffer (50 mM Tris pH 7.5, 0.5 M NaCl), once with low salt buffer (50 mM Tris pH 7.5, 0.1 M NaCl), and resuspended in 50 μL papain selection buffer (50 mM Tris pH 7.5, 100 mM NaCl, 1 mM EDTA). One fifth of the beads were removed for PCR as described below.
The remaining beads (40 μL) were heated for 15 min at 95° C., cooled to 60° C., supplemented with an equal volume of fresh papain-linked sepharose beads; cooled rapidly to 4° C., and the selection was repeated. This protocol was repeated three times (four rounds total) for the first-generation selection (FIG. 4A) and was repeated twice (three rounds total) for the second-generation selection (FIG. 6A). After each round of affinity selection, PCR was performed using one fifth of the total beads. Filtered beads were resuspended in 18 μL NEB buffer 4 with BSA, 1 μL Hha I, and 1 μL HinPI I (all restriction endonucleases purchased from New England Biolabs). Reactions were incubated for 1.5 hours at 37° C., then added directly into 80 μL PCR master mix containing 5 μL Taq buffer, 5 μL 25 mM MgCl2, 1 μL 100 μM primer 1, 1 μL 100 μM primer 2, 1 μL 25 mM dNTPs, and 1 μL Taq DNA polymerase and 54 μL H2O. Primer sequences are as follows:
For the enrichment experiments described in FIG. 5A, […] total template:mixture (500:1 M1 template:P1 template; or 500:1 U1 template:P1 template) was translated as described above using library translation conditions. The individual template sequences are as follows:
The translated products were displaced as described above, subjected to three rounds of selection against papain as described above, and the resulting bound DNA templates were digested and amplified by PCR as described above. […]

CC1=CC(C)=[N+]2C1=Cc1ccc(CCC(=O)NCCN)n1[B-]2(F)F [BFL fluorophore, BFL-ethylenediamine]
papain affinity (fluorescence polarization) (papain [1]): did not bind papain

B1: U1: unrelated library sequence, translated from template SEQ ID NO: 18 (conjugate)
DNA: TGCGACGGTGCGCACCGTCGCAAGTCAGTCACCCAATCACTCACGCATCCAGTCACCCAACCGGACAAGGTGCGCACCTTGTCC
modifications: DNA, backbone and methylation of C not given here; DNA template covalently linked to PNA translation product, further chemistry not fully specified
enrichment after papain affinity selection (papain [2]; 500:1 ratio of M1:U1 DNA templates, translation, displacement, selection): no detectable enrichment

B2: P1 translation product: PNA 40-mer selected for papain binding, covalently linked to its DNA template (SEQ ID NO: 16) (conjugate)
DNA: TGCGACGGTGCGCACCGTCGCAAGCCATTCATGCATGCACCCAGGCATGCATTCATTCATGCGGACAAGGTGCGCACCTTGTCC
modifications: DNA, backbone and methylation of C not given here; DNA template covalently linked to PNA translation product, further chemistry not fully specified
enrichment after papain affinity selection (papain [2]; 500:1 M1:P1 template mixture, translated, displaced, three rounds of selection, PCR and restriction digestion): ~500 fold | enrichment after papain affinity selection (papain [2]; 500:1 mixture of U1 (unrelated):P1 templates): 500 fold
